This note sets out measurements from patent EP4296674A1 (Université Toulouse III - Paul Sabatier, dated 2023).

The labels stand for the following.
B3: HadA of Mycobacterium tuberculosis fused to an enhanced Green Fluorescent Protein (eGFP) tag at its N-terminus (other)
chain: MALSADIVGMHYRYPDHYEVEREKIREYAVAVQNDDAWYFEEDGAAELGYKGLLAPLTFICVFGYKAQAAFFKHANIATAEAQIVQVDQVLKFEKPIVAGDKLYCDVYVDSVREAHGTQIIVTKNIVTNEEGDLVQETYTTLAGRAGEDGEGFSDGAA

For assay [1], the target named is HadB protein of Mycobacterium tuberculosis (untagged) (Mycobacterium tuberculosis).
Assay [2] deals with N-terminal polyHis-tagged HadD of Mycobacterium tuberculosis (Mycobacterium tuberculosis). Put plainly: from the HadBD crystal structure.
Assay [3] has the same target. Put plainly: PDBePISA analysis of the HadBD crystal structure.
In assay [4] the target is B3. Put plainly: pull-down from M. bovis BCG on anti-GFP magnetic beads, nanoLC-MS/MS proteomics.
Assay [5] concerns the target T1, HadD-Ctrp fusion protein (C-terminal fragment of S. cerevisiae Trp1p fused to the C-terminal end of HadD of … (Mycobacterium tuberculosis (HadD); …).
T1 chain: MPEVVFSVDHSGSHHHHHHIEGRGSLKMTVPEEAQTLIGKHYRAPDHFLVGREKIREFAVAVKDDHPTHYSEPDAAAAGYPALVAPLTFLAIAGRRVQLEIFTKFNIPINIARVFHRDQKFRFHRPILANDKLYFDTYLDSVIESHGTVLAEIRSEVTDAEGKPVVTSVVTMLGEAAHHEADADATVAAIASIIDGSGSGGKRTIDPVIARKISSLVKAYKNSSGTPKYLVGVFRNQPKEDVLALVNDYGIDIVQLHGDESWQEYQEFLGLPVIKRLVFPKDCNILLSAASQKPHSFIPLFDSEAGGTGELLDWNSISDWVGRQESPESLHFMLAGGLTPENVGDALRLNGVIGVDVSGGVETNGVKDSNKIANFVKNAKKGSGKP
The experiment in a line: split-Trp assay in M. smegmatis ΔhisA, growth on medium without Trp.

In the next assay the target is T2, HadC (Rv0637) (Mycobacterium tuberculosis, UniProt P9WFJ9 1-166).
T2 sequence: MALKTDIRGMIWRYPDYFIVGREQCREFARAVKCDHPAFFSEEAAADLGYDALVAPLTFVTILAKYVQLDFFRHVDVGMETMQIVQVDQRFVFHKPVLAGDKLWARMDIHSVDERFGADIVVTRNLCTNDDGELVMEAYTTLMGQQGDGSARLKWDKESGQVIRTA
Put plainly: pull-down from M. bovis BCG on anti-GFP magnetic beads, nanoLC-MS/MS proteomics.

Assay [6] deals with T3, HadD of M. bovis BCG (BCG_0547c) (Mycobacterium bovis BCG, UniProt P64726 1-166).
T3 sequence: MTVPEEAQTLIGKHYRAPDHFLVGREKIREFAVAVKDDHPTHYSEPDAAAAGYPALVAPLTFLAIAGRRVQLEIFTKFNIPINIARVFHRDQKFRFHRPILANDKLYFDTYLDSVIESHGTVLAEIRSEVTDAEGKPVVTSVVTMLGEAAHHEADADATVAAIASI
Described as above.

For assay [7], the target named is T1, HadD-Ctrp fusion protein (C-terminal …). The experiment in a line: split-Trp assay in M. smegmatis ΔhisA.
For a further assay, the target named is T4, HadC-Ctrp fusion protein (Mycobacterium tuberculosis (HadC); …).
T4 chain: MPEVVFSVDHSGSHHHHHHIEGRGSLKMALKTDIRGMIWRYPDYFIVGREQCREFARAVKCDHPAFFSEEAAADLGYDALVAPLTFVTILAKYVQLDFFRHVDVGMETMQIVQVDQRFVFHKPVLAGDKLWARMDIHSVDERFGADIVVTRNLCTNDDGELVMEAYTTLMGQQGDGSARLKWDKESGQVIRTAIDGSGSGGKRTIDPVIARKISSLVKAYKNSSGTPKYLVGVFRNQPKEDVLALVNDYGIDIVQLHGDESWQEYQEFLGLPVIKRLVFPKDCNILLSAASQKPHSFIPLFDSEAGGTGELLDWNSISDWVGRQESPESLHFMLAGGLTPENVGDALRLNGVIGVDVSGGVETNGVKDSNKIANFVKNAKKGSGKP
The experiment in a line: split-Trp assay in M. smegmatis ΔhisA, positive control pair.

Assay [8] addresses T5, Cfp10-Ctrp fusion protein (Mycobacterium tuberculosis (Cfp10); …).
T5 chain: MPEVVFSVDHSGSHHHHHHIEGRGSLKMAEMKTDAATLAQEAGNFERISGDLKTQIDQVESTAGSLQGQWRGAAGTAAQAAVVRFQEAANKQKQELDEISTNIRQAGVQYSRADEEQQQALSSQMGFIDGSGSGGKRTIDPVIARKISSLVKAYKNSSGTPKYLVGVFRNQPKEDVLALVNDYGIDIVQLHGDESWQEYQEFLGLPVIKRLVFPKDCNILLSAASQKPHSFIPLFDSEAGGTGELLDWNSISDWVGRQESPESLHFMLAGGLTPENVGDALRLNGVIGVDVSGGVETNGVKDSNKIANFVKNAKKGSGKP
Described as above.

As for “HadB protein of Mycobacterium tuberculosis (untagged) (enzyme)”, in [1], the buried surface area was 525 A^2 and the ΔG (PDBePISA) is -5.8 kcal/mol. This molecule also gave a total buried surface at each heterodimer interface in [2] of 3840 A^2. Besides, in [3], the surface of heterodimerization (PDBePISA) turned out to be 1340 Å^2 and the ΔG of heterodimerization (PDBePISA) was -11 kcal/mol.

B1: HadB protein of Mycobacterium tuberculosis (untagged) (enzyme)
chain: MALREFSSVKVGDQLPEKTYPLTRQDLVNYAGVSGDLNPIHWDDEIAKVVGLDTAIAHGMLTMGIGGGYVTSWVGDPGAVTEYNVRFTAVVPVPNDGKGAELVFNGRVKSVDPESKSVTIALTATTGGKKIFGRAIASAKLA
As for B1, the binding result in assay [4] is “binds”.

B2: Ntrp-HadDMtb fusion protein (other)
chain: SSVINFTGSSGPLVKVCGLQSTEAAECALDSDADLLGIICVPNRMTVPEEAQTLIGKHYRAPDHFLVGREKIREFAVAVKDDHPTHYSEPDAAAAGYPALVAPLTFLAIAGRRVQLEIFTKFNIPINIARVFHRDQKFRFHRPILANDKLYFDTYLDSVIESHGTVLAEIRSEVTDAEGKPVVTSVVTMLGEAAHHEADADATVAAIASI
B2: the binding result in assay [5] was “no binding”.
For the molecule B3, the binding result (in the assay with HadC (Rv0637); in assay [6]) was “binds” in each case.

B4: Ntrp-HadB fusion protein (N-terminal fragment of S. cerevisiae Trp1p fused to the N-terminal end of HadB of Mtb) (other)
chain: MPEVVFSVDHSGSGTMYPYDVPDYASSVINFTGSSGPLVKVCGLQSTEAAECALDSDADLLGIICVPNRGGSGSGLKMALREFSSVKVGDQLPEKTYPLTRQDLVNYAGVSGDLNPIHWDDEIAKVVGLDTAIAHGMLTMGIGGGYVTSWVGDPGAVTEYNVRFTAVVPVPNDGKGAELVFNGRVKSVDPESKSVTIALTATTGGKKIFGRAIASAKLA
For B4, the binding result (in assay [7]; in the assay with HadC-Ctrp fusion protein) was “binds” each time.

B5: Ntrp-Esat6 fusion protein (other)
chain: MPEVVFSVDHSGSGTMYPYDVPDYASSVINFTGSSGPLVKVCGLQSTEAAECALDSDADLLGIICVPNRGGSGSGLKMTEQQWNFAGIEAAASAIQGNVTSIHSLLDEGKQSLTKLAAAWGGSGSEAYQGVQQKWDATATELNNALQNLARTISEAGQAMASTEGNVTGMFA
In the case of B5, the binding result in assay [8] was “binds”.
